Where a chain is given by its changes, count along the chain named. Numbered stars: 1 amine (or outer) side, 2 acyl side, 3 side chain; on linkers, the order of the positions; unused ones are H or OH. Square brackets hold non-standard residues; d marks the D form. Side chains are listed from the residue outwards. Ends that are not written are not given here. * marks the point of attachment. C20 diacid = O=C(O)CCCCCCCCCCCCCCCCCCC(=O)*; C18 diacid = O=C(O)CCCCCCCCCCCCCCCCC(=O)*; γGlu = O=C(O)[C@H](CCC(=O)[*:2])N[*:1]; AEEA = NCCOCCOCC(=O)O; Aib = CC(C)(N)C(=O)O
T1: human gastric inhibitory peptide receptor (GIPR) (human, UniProt P48546 22-466)
T1 sequence (looked up): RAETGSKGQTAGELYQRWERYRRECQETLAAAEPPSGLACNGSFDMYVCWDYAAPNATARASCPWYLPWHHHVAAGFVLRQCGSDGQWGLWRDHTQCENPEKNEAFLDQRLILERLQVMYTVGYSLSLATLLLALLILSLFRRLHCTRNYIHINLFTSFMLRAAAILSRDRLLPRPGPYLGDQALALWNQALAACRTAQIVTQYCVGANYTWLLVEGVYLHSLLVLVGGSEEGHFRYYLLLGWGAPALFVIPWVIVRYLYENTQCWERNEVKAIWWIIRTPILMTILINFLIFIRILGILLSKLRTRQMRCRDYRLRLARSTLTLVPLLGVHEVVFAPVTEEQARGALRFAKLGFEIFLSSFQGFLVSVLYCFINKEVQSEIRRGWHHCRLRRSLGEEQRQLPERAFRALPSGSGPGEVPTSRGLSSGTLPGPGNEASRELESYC

B1: Example 321 (peptide)
peptide: Y[Aib]EGTFTSDYSILLDKK([AEEA-AEEA-γGlu-C18 diacid])AQ[Aib]TFIEYLIEGGPSSG-NH2
modifications: N-terminus assumed
SMILES: CC[C@H](C)[C@H](NC(=O)[C@H](CC(C)C)NC(=O)[C@H](Cc1ccc(O)cc1)NC(=O)[C@H](CCC(=O)O)NC(=O)[C@@H](NC(=O)[C@H](Cc1ccccc1)NC(=O)[C@@H](NC(=O)C(C)(C)NC(=O)[C@H](CCC(N)=O)NC(=O)[C@H](C)NC(=O)[C@H](CCCCNC(=O)COCCOCCNC(=O)COCCOCCNC(=O)CC[C@H](NC(=O)CCCCCCCCCCCCCCCCC(=O)O)C(=O)O)NC(=O)[C@H](CCCCN)NC(=O)[C@H](CC(=O)O)NC(=O)[C@H](CC(C)C)NC(=O)[C@H](CC(C)C)NC(=O)[C@@H](NC(=O)[C@H](CO)NC(=O)[C@H](Cc1ccc(O)cc1)NC(=O)[C@H](CC(=O)O)NC(=O)[C@H](CO)NC(=O)[C@@H](NC(=O)[C@H](Cc1ccccc1)NC(=O)[C@@H](NC(=O)CNC(=O)[C@H](CCC(=O)O)NC(=O)C(C)(C)NC(=O)[C@@H](N)Cc1ccc(O)cc1)[C@@H](C)O)[C@@H](C)O)[C@@H](C)CC)[C@@H](C)O)[C@@H](C)CC)C(=O)N[C@@H](CCC(=O)O)C(=O)NCC(=O)NCC(=O)N1CCC[C@H]1C(=O)N[C@@H](CO)C(=O)N[C@@H](CO)C(=O)NCC(N)=O
B2: Example 318 (peptide)
peptide: Y[Aib]EGTFTSDYSILLDKK([AEEA-AEEA-γGlu-C20 diacid])AQ[Aib]EFIEYLIAGGPSSG-NH2
modifications: N-terminus assumed
SMILES: CC[C@H](C)[C@H](NC(=O)[C@H](CC(C)C)NC(=O)[C@H](Cc1ccc(O)cc1)NC(=O)[C@H](CCC(=O)O)NC(=O)[C@@H](NC(=O)[C@H](Cc1ccccc1)NC(=O)[C@H](CCC(=O)O)NC(=O)C(C)(C)NC(=O)[C@H](CCC(N)=O)NC(=O)[C@H](C)NC(=O)[C@H](CCCCNC(=O)COCCOCCNC(=O)COCCOCCNC(=O)CC[C@H](NC(=O)CCCCCCCCCCCCCCCCCCC(=O)O)C(=O)O)NC(=O)[C@H](CCCCN)NC(=O)[C@H](CC(=O)O)NC(=O)[C@H](CC(C)C)NC(=O)[C@H](CC(C)C)NC(=O)[C@@H](NC(=O)[C@H](CO)NC(=O)[C@H](Cc1ccc(O)cc1)NC(=O)[C@H](CC(=O)O)NC(=O)[C@H](CO)NC(=O)[C@@H](NC(=O)[C@H](Cc1ccccc1)NC(=O)[C@@H](NC(=O)CNC(=O)[C@H](CCC(=O)O)NC(=O)C(C)(C)NC(=O)[C@@H](N)Cc1ccc(O)cc1)[C@@H](C)O)[C@@H](C)O)[C@@H](C)CC)[C@@H](C)CC)C(=O)N[C@@H](C)C(=O)NCC(=O)NCC(=O)N1CCC[C@H]1C(=O)N[C@@H](CO)C(=O)N[C@@H](CO)C(=O)NCC(N)=O
B3: Example 320 (peptide)
peptide: Y[Aib]EGTFTSDYSILLDKK([AEEA-AEEA-γGlu-C18 diacid])AQ[Aib]DFIEYLIEGGPSSG-NH2
modifications: N-terminus assumed
SMILES: CC[C@H](C)[C@H](NC(=O)[C@H](CC(C)C)NC(=O)[C@H](Cc1ccc(O)cc1)NC(=O)[C@H](CCC(=O)O)NC(=O)[C@@H](NC(=O)[C@H](Cc1ccccc1)NC(=O)[C@H](CC(=O)O)NC(=O)C(C)(C)NC(=O)[C@H](CCC(N)=O)NC(=O)[C@H](C)NC(=O)[C@H](CCCCNC(=O)COCCOCCNC(=O)COCCOCCNC(=O)CC[C@H](NC(=O)CCCCCCCCCCCCCCCCC(=O)O)C(=O)O)NC(=O)[C@H](CCCCN)NC(=O)[C@H](CC(=O)O)NC(=O)[C@H](CC(C)C)NC(=O)[C@H](CC(C)C)NC(=O)[C@@H](NC(=O)[C@H](CO)NC(=O)[C@H](Cc1ccc(O)cc1)NC(=O)[C@H](CC(=O)O)NC(=O)[C@H](CO)NC(=O)[C@@H](NC(=O)[C@H](Cc1ccccc1)NC(=O)[C@@H](NC(=O)CNC(=O)[C@H](CCC(=O)O)NC(=O)C(C)(C)NC(=O)[C@@H](N)Cc1ccc(O)cc1)[C@@H](C)O)[C@@H](C)O)[C@@H](C)CC)[C@@H](C)CC)C(=O)N[C@@H](CCC(=O)O)C(=O)NCC(=O)NCC(=O)N1CCC[C@H]1C(=O)N[C@@H](CO)C(=O)N[C@@H](CO)C(=O)NCC(N)=O
B4: Example 319 (peptide)
peptide: Y[Aib]EGTFTSDYSILLDKK([AEEA-AEEA-γGlu-C20 diacid])AQ[Aib]EFIEYLIAGGPSSGAPPPS-NH2
modifications: N-terminus assumed
SMILES: CC[C@H](C)[C@H](NC(=O)[C@H](CC(C)C)NC(=O)[C@H](Cc1ccc(O)cc1)NC(=O)[C@H](CCC(=O)O)NC(=O)[C@@H](NC(=O)[C@H](Cc1ccccc1)NC(=O)[C@H](CCC(=O)O)NC(=O)C(C)(C)NC(=O)[C@H](CCC(N)=O)NC(=O)[C@H](C)NC(=O)[C@H](CCCCNC(=O)COCCOCCNC(=O)COCCOCCNC(=O)CC[C@H](NC(=O)CCCCCCCCCCCCCCCCCCC(=O)O)C(=O)O)NC(=O)[C@H](CCCCN)NC(=O)[C@H](CC(=O)O)NC(=O)[C@H](CC(C)C)NC(=O)[C@H](CC(C)C)NC(=O)[C@@H](NC(=O)[C@H](CO)NC(=O)[C@H](Cc1ccc(O)cc1)NC(=O)[C@H](CC(=O)O)NC(=O)[C@H](CO)NC(=O)[C@@H](NC(=O)[C@H](Cc1ccccc1)NC(=O)[C@@H](NC(=O)CNC(=O)[C@H](CCC(=O)O)NC(=O)C(C)(C)NC(=O)[C@@H](N)Cc1ccc(O)cc1)[C@@H](C)O)[C@@H](C)O)[C@@H](C)CC)[C@@H](C)CC)C(=O)N[C@@H](C)C(=O)NCC(=O)NCC(=O)N1CCC[C@H]1C(=O)N[C@@H](CO)C(=O)N[C@@H](CO)C(=O)NCC(=O)N[C@@H](C)C(=O)N1CCC[C@H]1C(=O)N1CCC[C@H]1C(=O)N1CCC[C@H]1C(=O)N[C@@H](CO)C(N)=O
B5: Example 317 (peptide)
peptide: Y[Aib]EGTFTSDYSILLDKK([AEEA-AEEA-γGlu-C20 diacid])AQ[Aib]AFIEYLIAGGPSSG-NH2
modifications: N-terminus assumed
SMILES: CC[C@H](C)[C@H](NC(=O)[C@H](CC(C)C)NC(=O)[C@H](Cc1ccc(O)cc1)NC(=O)[C@H](CCC(=O)O)NC(=O)[C@@H](NC(=O)[C@H](Cc1ccccc1)NC(=O)[C@H](C)NC(=O)C(C)(C)NC(=O)[C@H](CCC(N)=O)NC(=O)[C@H](C)NC(=O)[C@H](CCCCNC(=O)COCCOCCNC(=O)COCCOCCNC(=O)CC[C@H](NC(=O)CCCCCCCCCCCCCCCCCCC(=O)O)C(=O)O)NC(=O)[C@H](CCCCN)NC(=O)[C@H](CC(=O)O)NC(=O)[C@H](CC(C)C)NC(=O)[C@H](CC(C)C)NC(=O)[C@@H](NC(=O)[C@H](CO)NC(=O)[C@H](Cc1ccc(O)cc1)NC(=O)[C@H](CC(=O)O)NC(=O)[C@H](CO)NC(=O)[C@@H](NC(=O)[C@H](Cc1ccccc1)NC(=O)[C@@H](NC(=O)CNC(=O)[C@H](CCC(=O)O)NC(=O)C(C)(C)NC(=O)[C@@H](N)Cc1ccc(O)cc1)[C@@H](C)O)[C@@H](C)O)[C@@H](C)CC)[C@@H](C)CC)C(=O)N[C@@H](C)C(=O)NCC(=O)NCC(=O)N1CCC[C@H]1C(=O)N[C@@H](CO)C(=O)N[C@@H](CO)C(=O)NCC(N)=O
B6: Example 322 (peptide)
peptide: Y[Aib]EGTFTSDYSILLDKK([AEEA-AEEA-γGlu-C18 diacid])AQ[Aib]HFIEYLIEGGPSSG-NH2
modifications: N-terminus assumed
SMILES: CC[C@H](C)[C@H](NC(=O)[C@H](CC(C)C)NC(=O)[C@H](Cc1ccc(O)cc1)NC(=O)[C@H](CCC(=O)O)NC(=O)[C@@H](NC(=O)[C@H](Cc1ccccc1)NC(=O)[C@H](Cc1c[nH]cn1)NC(=O)C(C)(C)NC(=O)[C@H](CCC(N)=O)NC(=O)[C@H](C)NC(=O)[C@H](CCCCNC(=O)COCCOCCNC(=O)COCCOCCNC(=O)CC[C@H](NC(=O)CCCCCCCCCCCCCCCCC(=O)O)C(=O)O)NC(=O)[C@H](CCCCN)NC(=O)[C@H](CC(=O)O)NC(=O)[C@H](CC(C)C)NC(=O)[C@H](CC(C)C)NC(=O)[C@@H](NC(=O)[C@H](CO)NC(=O)[C@H](Cc1ccc(O)cc1)NC(=O)[C@H](CC(=O)O)NC(=O)[C@H](CO)NC(=O)[C@@H](NC(=O)[C@H](Cc1ccccc1)NC(=O)[C@@H](NC(=O)CNC(=O)[C@H](CCC(=O)O)NC(=O)C(C)(C)NC(=O)[C@@H](N)Cc1ccc(O)cc1)[C@@H](C)O)[C@@H](C)O)[C@@H](C)CC)[C@@H](C)CC)C(=O)N[C@@H](CCC(=O)O)C(=O)NCC(=O)NCC(=O)N1CCC[C@H]1C(=O)N[C@@H](CO)C(=O)N[C@@H](CO)C(=O)NCC(N)=O
B7: Example 323 (peptide)
peptide: YXEGTFTSDYSIXLDEKAQXAFIEYLIEGGPSSGAPPPS
modifications: Aib2, αMeL13, (2-[2-(2-Amino-ethoxy)-ethoxy]-acetyl)2-(γ-Glu)-CO-(CH2)16-CO2H on K17, Aib20, C-terminal NH2
B8: Example 324 (peptide)
peptide: B7 peptide with E16K, E28A
modifications: Aib2, αMeL13, (2-[2-(2-Amino-ethoxy)-ethoxy]-acetyl)2-(γ-Glu)-CO-(CH2)1s-CO2H (so in the source); probably (CH2)18) on K17, Aib20, C-terminal NH2
B9: Example 325 (peptide)
peptide: B7 peptide with F6X, X13L, E16K
modifications: Aib2, αMeF(2F)6, (2-[2-(2-Amino-ethoxy)-ethoxy]-acetyl)2-(γ-Glu)-CO-(CH2)18-CO2H on K17, Aib20, C-terminal NH2

molecular target: human GLP-1 receptor (GLP-1R) (human, UniProt P43220 24-463); experiment: cell-based or functional assay

First: B1
Second: B2
The “hGLP1R cAMP EC50 ratio” value of the first is lower: 0.437 for the first, 0.482 for the second.

Compared with B3, B4 is higher in “hGLP1R cAMP EC50 ratio” value: 0.224 for the first, 0.522 for the second.

First: B5
Second: B6
The “hGLP1R cAMP EC50 ratio” value of the first is higher: 0.333 for the first, 0.125 for the second.

Compared with B7, B8 is lower in “hGLP1R cAMP EC50 ratio” value: 1.32 for the first, 0.798 for the second.

For B9, the “hGLP1R cAMP EC50 ratio” value was 1.16.

Going from B1 to B2, the “hGLP1R cAMP Rel EC50” value falls from 0.204 nM to 0.124 nM (1.6-fold).

Compared with B3, B4 is 3.5-fold lower in “hGLP1R cAMP Rel EC50” value: 0.397 nM for the first, 0.113 nM for the second.

Going from B5 to B6, the “hGLP1R cAMP Rel EC50” value rises from 0.172 nM to 0.711 nM (4.1-fold).

Compared with B7, B8 is 1.6-fold higher in “hGLP1R cAMP Rel EC50” value: 0.0597 nM for the first, 0.0926 nM for the second.

B9 was tested, and the “hGLP1R cAMP Rel EC50” value was 0.0586 nM.

molecular target: T1, human gastric inhibitory peptide …; experiment: cell-based or functional assay

Compared with B1, B2 is higher in “hGIPR cAMP EC50 ratio” value: 0.517 for the first, 1.69 for the second.

Compared with B3, B4 is higher in “hGIPR cAMP EC50 ratio” value: 0.241 for the first, 2.77 for the second.

Going from B5 to B6, the “hGIPR cAMP EC50 ratio” value falls from 1.01 to 0.266.

Going from B7 to B8, the “hGIPR cAMP EC50 ratio” value falls from 3.24 to 2.13.

In the case of B9, the “hGIPR cAMP EC50 ratio” value is reported as 2.65.

B1 and B2 are within 1.5-fold of each other in “hGIPR cAMP Rel EC50” value: 0.0752 nM for the first, 0.0547 nM for the second.

Compared with B3, B4 is 3-fold lower in “hGIPR cAMP Rel EC50” value: 0.161 nM for the first, 0.054 nM for the second.

First: B5
Second: B6
The “hGIPR cAMP Rel EC50” value of the first is 1.5-fold lower: 0.0948 nM for the first, 0.146 nM for the second.

B7 and B8 are within 1.5-fold of each other in “hGIPR cAMP Rel EC50” value: 0.0251 nM for the first, 0.0374 nM for the second.

With B9 the “hGIPR cAMP Rel EC50” value was 0.0301 nM.

Source: patent US20220048967A1 (published 2022)
